# According to US20150197757, “OXYGEN-RESPONSIVE BACTERIAL GENE SWITCH” (Wisconsin Alumni Research Foundation, published 2015):
# Numbering of substitutions follows the chain as printed.
# B1: icdA P1 wt (dsDNA)
# DNA 1: AGAGCAATTTTTTGTTAATGATTTGTAATTGGCTTGTCAATACTACCCTATTGT
# DNA 2: ACAATAGGGTAGTATTGACAAGCCAATTACAAATCATTAACAAAAAATTGCTCT
# B2: icdA P1 DR3 GT->CA (dsDNA)
# DNA 1: B1 DNA 1 with G36C, T37A
# DNA 2: B1 DNA 2 with A18T, C19G
# B3: icdA P1 DR2 A->T (dsDNA)
# DNA 1: B1 DNA 1 with A27T
# DNA 2: B1 DNA 2 with T28A
# B4: icdA P1 DR3 C->T (dsDNA)
# DNA 1: B1 DNA 1 with C38T
# DNA 2: B1 DNA 2 with G17A
# B5: icdA P1 DR2 A->T, DR3 GT->CA (dsDNA)
# DNA 1: B1 DNA 1 with A27T, G36C, T37A
# DNA 2: B1 DNA 2 with A18T, C19G, T28A
# B6: icdA P1 DR2 A->T, DR3 C->T (dsDNA)
# DNA 1: B1 DNA 1 with A27T, C38T
# DNA 2: B1 DNA 2 with G17A, T28A
# B7: icdA P1 5' DR4 (dsDNA)
# DNA 1: B1 DNA 1 with G2T, A3G, G4T, C5T
# DNA 2: B1 DNA 2 with G50A, C51A, T52C, C53A
# B8: icdA P1 3' DR4 (dsDNA)
# DNA 1: B1 DNA 1 with C46T, C47G, C48T
# DNA 2: B1 DNA 2 with G7A, G8C, G9A
# Experiments:
# ArcA (chromosomal) [1] = target: T1, ArcA (chromosomal) (Escherichia coli, UniProt P0A9Q1 P0A9Q1:1-238); experiment: cell_activity; anaerobic lacZ fusion; repression largely relieved with O2
# T1 sequence: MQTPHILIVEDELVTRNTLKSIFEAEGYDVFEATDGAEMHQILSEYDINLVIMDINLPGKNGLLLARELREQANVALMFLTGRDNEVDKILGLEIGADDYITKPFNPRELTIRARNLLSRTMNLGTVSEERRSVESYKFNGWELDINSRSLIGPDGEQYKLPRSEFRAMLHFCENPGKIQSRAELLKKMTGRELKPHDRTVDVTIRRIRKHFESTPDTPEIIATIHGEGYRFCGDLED
# Description: (§1) Strains containing P1icdA-lacZ were grown in minimal media with 0.2% glucose. Fold repression was calculated by dividing the β-galactosidase activity of a ΔarcA strain (e.g., 803 Miller units for wt P1icdA-lacZ without O₂) by the activity of an arcA⁺ strain (e.g., 57 Miller units for wt P1icdA without O₂). The 10-bp DRs are indicated by open boxes with an X representing a DR element for which the repressive activity has been eliminated by mutation, and asterisks denoting DRs that have been mutated towards consensus (see FIG. 1C). (A) Effects of mutations away from consensus within each DR element, assayed under anaerobic conditions (—O₂). (B) The effect of mutations towards consensus within each DR element, assayed under anaerobic conditions. The dotted line represents anaerobic ArcA-dependent repression of wt P1icdA. (C) The effect of mutations towards consensus within each DR element, assayed under aerobic conditions. […]
# (§2) β-galactosidase assays—All strains were grown in MOPS minimal medium (Neidhardt et al., 1974) with 0.2% glucose at 37° C. and sparged with a gas mix of 95% N₂ and 5% CO₂ (anaerobic) or 70% N₂, 5% CO₂, and 25% O₂ (aerobic). […] Standard errors for data plotted as ‘fold repression’ were calculated using a propagation of standard error formula (Ku, J. Res. National Bureau of Standards 70C:263-273 (1966)).
# ArcA (chromosomal) [2] = target: T1, ArcA (chromosomal); experiment: cell_activity; anaerobic
# Description: P1icdA expression in the construct with a fourth DR element was about 18% higher in a ΔarcA background compared to the other strains tested (data not shown).
# How ArcA binding to each DR element contributes to icdA repression was determined by measuring β-galactosidase activity produced from P1icdA-lacZ transcriptional fusions containing the GT-to-CA (5′-TGTTA-3′ to 5′-TCATA-3′) (SEQ ID NO:2; SEQ ID NO:4, respectively) mutations within each DR element under anaerobic conditions. […] P1izcdA was repressed 14-fold by ArcA (FIG. 3A). […]
# β-galactosidase assays—All strains were grown in MOPS minimal medium (Neidhardt et al., 1974) with 0.2% glucose at 37° C. and sparged with a gas mix of 95% N₂ and 5% CO₂ (anaerobic) or 70% N₂, 5% CO₂, and 25% O₂ (aerobic). […] To terminate cell growth and any further protein synthesis, chloramphenicol (final concentration, 20 μg/ml) or tetracycline (final concentration, 10 μg/ml) was added, and cells were placed on ice until assayed for β-galactosidase activity (Miller J H (1972) Experiments in molecular genetics. [Cold Spring Harbor, N.Y.]: Cold Spring Harbor Laboratory). β-Galactosidase assays were repeated at least three times and fold repression was calculated by dividing the β-galactosidase activity of a ΔarcA strain by the activity of an arcA⁺ strain. […]
# ArcA (chromosomal) [3] = target: T1, ArcA (chromosomal); experiment: cell_activity; anaerobic; aerobic about 2.5-fold repression
# Description: as §1, §2
# ArcA D54E = target: T2, ArcA D54E (Escherichia coli, UniProt P0A9Q1 P0A9Q1:1-238, D54E); experiment: cell_activity; anaerobic; aerobic repression above wt ArcA
# T2 sequence: T1 sequence with D54E
# Excerpt: To test whether the enhanced repression of P₁idcdA with mutant ArcA binding sites is still dependent on phosphorylation, the aspartate residue at position 54 (site of phosphorylation) in the chromosomal copy of arcA was mutated to yield either alanine or glutamate, preventing phosphorylation from ArcB. The D54A variant reduced the repression of all P1icdA-lacZ constructs compared to that with the wt protein under both aerobic and anaerobic growth conditions (FIG. 5A). […] Thus, the elevated aerobic repression with the strengthened ArcA binding sites appears to result from increased occupancy of the small amount of ArcA-P likely present during aerobic conditions.
# as §2, with “(aerobic). Cells were harvested during mid-log growth (OD₆₀₀ of ˜0.3 on a Perkin Elmer Lambda 25 UV/Vis Spectrophotometer).” for “(aerobic).”
# ArcA (chromosomal) [4] = target: T1, ArcA (chromosomal); experiment: cell_activity; anaerobic; aerobic 7-fold repression
# Description: as §1, §2
# ArcA (chromosomal) [5] = target: T1, ArcA (chromosomal); experiment: cell_activity; anaerobic; remark: listed apart in the source
# Description: as §1, §2
# ArcA (chromosomal) [6] = target: T1, ArcA (chromosomal); experiment: cell_activity; aerobic; anaerobic repression similar to consensus DR3 alone
# Description: as §1, §2
# ArcA (chromosomal) [7] = target: T1, ArcA (chromosomal); experiment: cell_activity; anaerobic; aerobic repression nearly the same, no longer O2 sensitive
# Description: as §1, §2
# [8] = target: T3, ArcA-P (phosphorylated ArcA) (Escherichia coli, UniProt P0A9Q1 P0A9Q1:1-238); experiment: footprint; all four DRs protected; apparent affinity higher than wt; narrow range (<4-fold) of ArcA-P; conditions: tags: His6 removed with TEV protease; phosphorylated with carbamyl phosphate; chain copies: 2 per two DR elements (inferred); label: 3' 32P (footprint)
# T3 sequence: T1 sequence
# Description: To determine whether adding a fourth DR element facilitates ArcA-P binding and increases the footprint length, a consensus DR element (5′-TGTTA-3′) (SEQ ID NO:2) was added at the same spacing (11 by center-to-center) to either the 3′ or the 5′ end of the three-DR ArcA binding site within the icdA promoter region and DNase I footprinting experiments were performed.
# DNase I footprinting: icdA promoter fragments were isolated from pPK9476, pPK9477, pPK9908, pPK9909, pPK9913, pPK9914, and pPK15001 after digestion with XhoI and BamHI. Sequenase Version 2.0 (USB Scientific) was used to 3′ radiolabel the BamHI end of the fragment with [α-³²P]-dGTP (PerkinElmer). Labeled DNA fragments were isolated from a non-denaturing 5% acrylamide gel and were subsequently purified with Elutip-d™ columns (Schleicher and Schuell). ArcA was phosphorylated by incubating with 50 mM disodium carbamyl phosphate (Sigma Aldrich) in 50 mM Tris, pH 7.9, 150 mM NaCl, and 10 mM MgCl₂ for 1 hour at 30° C. (Lynch & Lin, J. Bacteria 178:6238-6249 (1996)) and immediately used in the binding assays. Footprinting assays were performed by incubating phosphorylated ArcA with labeled DNA (˜5 nM) for 10 minutes at 30° C. in 40 mM Tris (pH 7.9), 30 mM KCl, 100 μg/ml BSA and 1 mM DTT followed by the addition of 2 μg/ml DNase I (Worthington) for 30 seconds.
binder,measurement,setting,value
B1,activity,ArcA (chromosomal) [1],14 fold repression
B2,activity,ArcA (chromosomal) [2],~3.5 fold loss in repression vs wt
B3,activity,ArcA (chromosomal) [3],3 fold increase in repression vs wt
B4,activity,ArcA D54E,2 fold reduction in repression vs wt ArcA
same,activity,ArcA (chromosomal) [4],6 fold increase in repression vs wt
B5,activity,ArcA (chromosomal) [5],3 fold reduction in repression vs DR2 A->T
B6,activity,ArcA (chromosomal) [6],21 fold repression
B7,activity,ArcA (chromosomal) [7],8 fold increase in repression vs wt
B8,binding result,[8],binds
